In general, koff refers to the first-order rate constant of dissociation. As usually defined, the kon is the rate constant with which the complex forms.

The target in test [1] is T1, human PD-L1-Fc (R&D Systems) chimeric protein (human, UniProt Q9NZQ7 19-239).
T1 construct: Bought reagent; also called rhPD-L1-Fc; huPD-L1; Fc part of the bought chimera not given, not described
As to the kind of experiment: SPR (Biacore T200), PD-L1-Fc amine-coupled to CM5, Affimer analyte. The protocol:
(§1) ILF dimer production from E. coli was performed as described in Example 3. Briefly, protein was purified using three stages: affinity capture, IEX, and preparative SEC. […] To analyze PD-L1-Fc binding kinetics, a Biacore T200 kinetic analysis was performed using running buffer HBS-EP+ and series S sensor CM5 (GE Healthcare) chip Fc2 immobilized with PD-L1-Fc (R&D Systems) in 10 mM sodium acetate pH 4.0 using amine coupling reagents (GE Healthcare). The concentration titration of ILF AFFIMER® polypeptides was run as analyte at a flow rate of 30 μl/min. […] with 3 mM NaOH (GE healthcare) for 20 seconds at 20 μl/min flow rate. The Fc2-1 data blank was subtracted and fit to a 1:1 Langmuir binding model (Biacore evaluation software; GE) to calculate an apparent KD value.
A general note: In SPR one partner is held on a chip, and binding of the other changes the refractive index at the surface.

The target of test [2] is T1, human PD-L1-Fc (R&D Systems) chimeric …. As to the kind of experiment: SPR (Biacore T200), PD-L1-Fc amine-coupled to CM5, Affimer analyte; apparent KD. The procedure: as §1
Test [3] deals with T2, human serum albumin (human, UniProt P02768 25-609).
T2 construct: mature; Bought protein; biotinylated in the Octet and HTRF assays; also called HSA; HuSA
As to the kind of experiment: SPR (Biacore) binding response to HSA at pH 7.4, Affimer at 50 nM. The text has this: Final clones were sequence-verified, produced from E. coli, and affinity purified as described in Example 3.

Test [4] addresses T2, human serum albumin. The test can be described thus: Biacore, immobilised HSA, pH 7.4. The protocol:
Affinities for mouse, human, and cynomolgus serum were also measured at pH 7.4 for four (4) AFFIMER® binders using surface plasmon resonance (SPR) (FIG. 5, Table 5). […] A concentration titration of AFFIMER® monomers was run as analyte at a flow rate of 30 μl/min or 60 μl/min. Fc2-1, Fc3-1 and Fc4-1 kinetic data was blank subtracted and fit to a 1:1 Langmuir binding model (BIAcore Evalution software; GE) to calculate KD values.
The AFFIMER® polypeptides were produced and purified from E. coli as described in Example 3.

In test [5] the target is T2, human serum albumin. The test can be described thus: SPR (Biacore), immobilised HSA, Affimer analyte.

T1 sequence (Q9NZQ7 19-239, change not shown): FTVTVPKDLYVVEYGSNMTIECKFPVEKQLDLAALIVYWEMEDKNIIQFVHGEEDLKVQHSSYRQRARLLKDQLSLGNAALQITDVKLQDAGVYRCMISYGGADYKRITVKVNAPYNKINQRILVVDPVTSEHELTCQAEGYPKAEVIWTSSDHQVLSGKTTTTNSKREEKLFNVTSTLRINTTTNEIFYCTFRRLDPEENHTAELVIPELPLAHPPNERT

B1: AVA04-261 (designed binder)
chain: MIPRGLSEAKPATPEIQEIVDKVKPQLEEKTNETYGKLEAVQYKTQVLAHAYGPRDWDSTNYYIKVRAGDNKYMHLKVFNGPPADHVLEEAADRVLTGYQVDKNKDDELTGF
In test [1], B1 came in with a koff of 0.0109 s⁻¹ and a kon of 3.68e+06 M⁻¹ s⁻¹. The Kd in test [2] worked out at 2.95 nM.

B2: AVA04-236 (designed binder)
chain: MIPRGLSEAKPATPEIQEIVDKVKPQLEEKTNETYGKLEAVQYKTQVLAKEHGPDSWWSTNYYIKVRAGDNKYMHLKVFNGPQEKNQWVEEADRVLTGYQVDKNKDDELTGF
In test [1], B2 returned an off-rate constant (koff) of 0.00977 s⁻¹ and a kon of 1.8e+06 M⁻¹ s⁻¹. Further, in test [2], the Kd was 5.43 nM.

B3: AVA04-269 (designed binder)
chain: MIPRGLSEAKPATPEIQEIVDKVKPQLEEKTNETYGKLEAVQYKTQVLAKEYGPEEWWSTNYYIKVRAGDNKYMHLKVFNGPGDYEQVLIHADRVLTGYQVDKNKDDELTGF
In test [1], B3 showed a koff of 0.00345 s⁻¹ and an on-rate constant (kon) of 2.05e+06 M⁻¹ s⁻¹. Also, the Kd in test [2] was 1.68 nM.

B4: HSA-41 D89A (designed binder)
chain: MIPRGLSEAKPATPEIQEIVDKVKPQLEEKTNETYGKLEAVQYKTQVLANFFQRRWPGSTNYYIKVRAGDNKYMHLKVFNGPWKFRNTARGADRVLTGYQVDKNKDDELTGFHHHHHH
On to B4, for which the “binding response” value in the test with human serum albumin [3] is 26.1.

B5: HSA-41 N87A (designed binder)
chain: MIPRGLSEAKPATPEIQEIVDKVKPQLEEKTNETYGKLEAVQYKTQVLANFFQRRWPGSTNYYIKVRAGDNKYMHLKVFNGPWKFRATDRGADRVLTGYQVDKNKDDELTGFHHHHHH
B5: the “binding response” value with human serum albumin [3] is 25.8.

B6: HSA-41 G91A (designed binder)
chain: MIPRGLSEAKPATPEIQEIVDKVKPQLEEKTNETYGKLEAVQYKTQVLANFFQRRWPGSTNYYIKVRAGDNKYMHLKVFNGPWKFRNTDRAADRVLTGYQVDKNKDDELTGFHHHHHH
With B6, the “binding response” value in the test with human serum albumin [3] was 17.8.

B7: HSA-41 R90A (designed binder)
chain: MIPRGLSEAKPATPEIQEIVDKVKPQLEEKTNETYGKLEAVQYKTQVLANFFQRRWPGSTNYYIKVRAGDNKYMHLKVFNGPWKFRNTDAGADRVLTGYQVDKNKDDELTGFHHHHHH
Take B7: in the test with human serum albumin [3], the “binding response” value came to 17.2.

B8: HSA-41 N50A (designed binder)
chain: MIPRGLSEAKPATPEIQEIVDKVKPQLEEKTNETYGKLEAVQYKTQVLAAFFQRRWPGSTNYYIKVRAGDNKYMHLKVFNGPWKFRNTDRGADRVLTGYQVDKNKDDELTGFHHHHHH
On to B8, for which, in the test with human serum albumin [3], the “binding response” value turned out to be 13.

B9: HSA-41 P57A (designed binder)
chain: MIPRGLSEAKPATPEIQEIVDKVKPQLEEKTNETYGKLEAVQYKTQVLANFFQRRWAGSTNYYIKVRAGDNKYMHLKVFNGPWKFRNTDRGADRVLTGYQVDKNKDDELTGFHHHHHH
Take B9: in the test with human serum albumin [3], the “binding response” value stood at 23.2.

B10: HSA-41 R54A (designed binder)
chain: MIPRGLSEAKPATPEIQEIVDKVKPQLEEKTNETYGKLEAVQYKTQVLANFFQARWPGSTNYYIKVRAGDNKYMHLKVFNGPWKFRNTDRGADRVLTGYQVDKNKDDELTGFHHHHHH
With B10, the “binding response” value with human serum albumin [3] stood at 11.9.

B11: HSA-41 K84A (designed binder)
chain: MIPRGLSEAKPATPEIQEIVDKVKPQLEEKTNETYGKLEAVQYKTQVLANFFQRRWPGSTNYYIKVRAGDNKYMHLKVFNGPWAFRNTDRGADRVLTGYQVDKNKDDELTGFHHHHHH
B11: the “binding response” value with human serum albumin [3] is 23.5.

B12: HSA-41 Q53A (designed binder)
chain: MIPRGLSEAKPATPEIQEIVDKVKPQLEEKTNETYGKLEAVQYKTQVLANFFARRWPGSTNYYIKVRAGDNKYMHLKVFNGPWKFRNTDRGADRVLTGYQVDKNKDDELTGFHHHHHH
Turning to B12, in the test with human serum albumin [3], the “binding response” value stood at 23.5.

B13: HSA-41 F85A (designed binder)
chain: MIPRGLSEAKPATPEIQEIVDKVKPQLEEKTNETYGKLEAVQYKTQVLANFFQRRWPGSTNYYIKVRAGDNKYMHLKVFNGPWKARNTDRGADRVLTGYQVDKNKDDELTGFHHHHHH
For B13, the “binding response” value with human serum albumin [3] was determined as 26.6.

B14: HSA-41 R86A (designed binder)
chain: MIPRGLSEAKPATPEIQEIVDKVKPQLEEKTNETYGKLEAVQYKTQVLANFFQRRWPGSTNYYIKVRAGDNKYMHLKVFNGPWKFANTDRGADRVLTGYQVDKNKDDELTGFHHHHHH
On to B14, for which the “binding response” value with human serum albumin [3] was determined as 19.1.

B15: HSA-41 T88A (designed binder)
chain: MIPRGLSEAKPATPEIQEIVDKVKPQLEEKTNETYGKLEAVQYKTQVLANFFQRRWPGSTNYYIKVRAGDNKYMHLKVFNGPWKFRNADRGADRVLTGYQVDKNKDDELTGFHHHHHH
Turning to B15, in the test with human serum albumin [3], the “binding response” value came to 27.9.

B16: HSA-41 G58A (designed binder)
chain: MIPRGLSEAKPATPEIQEIVDKVKPQLEEKTNETYGKLEAVQYKTQVLANFFQRRWPASTNYYIKVRAGDNKYMHLKVFNGPWKFRNTDRGADRVLTGYQVDKNKDDELTGFHHHHHH
Turning to B16, in the test with human serum albumin [3], the “binding response” value is 6.5.

B17: HSA-41 BK (designed binder)
chain: MIPRGLSEAKPATPEIQEIVDKVKPQLEEKTNETYGKLEAVQYKTQVLANFFQRRWPGSTNYYIKVRAGDNKYMHLKVFNGPWKFRNTDRGADRVLTGYQVDKNKDDELTGFAEAAAKEAAAKEAAAKEAAAKEAAAKEAAAKMIPRGLSEAKPATPEIQEIVDKVKPQLEEKTNETYGKLEAVQYKTQVLANFFQRRWPGSTNYYIKVRAGDNKYMHLKVFNGPWKFRNTDRGADRVLTGYQVDKNKDDELTGFHHHHHH
notes: also called ILF homodimer with rigid linker
In the test with human serum albumin [4], B17 showed a Kd of 0.128 nM, a koff of 0.000994 s⁻¹ and a kon of 7.74e+06 M⁻¹ s⁻¹.

B18: AVA04-236 XT7 (designed binder)
chain: MIPRGLSEAKPATPEIQEIVDKVKPQLEEKTNETYGKLEAVQYKTQVLAKEHGPDSWWSTNYYIKVRAGDNKYMHLKVFNGPQEKNQWVEEADRVLTGYQVDKNKDDELTGFGGGGSGGGGSGGGGSGGGGSGGGGSGGGGSMIPRGLSEAKPATPEIQEIVDKVKPQLEEKTNETYGKLEAVQYKTQVLANFFQRRWPGSTNYYIKVRAGDNKYMHLKVFNGPWKFRNTDRGADRVLTGYQVDKNKDDELTGFHHHHHH
In test [1], B18 came in with an off-rate constant (koff) of 0.00763 s⁻¹ and a kon of 1.57e+06 M⁻¹ s⁻¹. In the test with human serum albumin [5], this molecule showed a Kd of 13.3 nM, a koff of 0.00336 s⁻¹ and an association rate constant (kon) of 253000 M⁻¹ s⁻¹. The Kd in test [2] worked out at 4.86 nM.

B19: AVA04-269 XT11 (designed binder)
chain: MIPRGLSEAKPATPEIQEIVDKVKPQLEEKTNETYGKLEAVQYKTQVLAKEYGPEEWWSTNYYIKVRAGDNKYMHLKVFNGPGDYEQVLIHADRVLTGYQVDKNKDDELTGFGGGGSGGGGSGGGGSGGGGSGGGGSGGGGSMIPRGLSEAKPATPEIQEIVDKVKPQLEEKTNETYGKLEAVQYKTQVLANFFQRRWPGSTNYYIKVRAGDNKYMHLKVFNGPWKFRNTDRGADRVLTGYQVDKNKDDELTGFHHHHHH
In test [1], B19 gave a koff of 0.00354 s⁻¹ and an on-rate constant (kon) of 796000 M⁻¹ s⁻¹. Also, in the test with human serum albumin [5], the Kd came out at 15.5 nM, the off-rate (koff) was determined as 0.00234 s⁻¹ and the on-rate (kon) was found to be 151000 M⁻¹ s⁻¹. Further, the Kd in test [2] came to 4.45 nM.

B20: HSA-41 DI (designed binder)
chain: MIPRGLSEAKPATPEIQEIVDKVKPQLEEKTNETYGKLEAVQYKTQVLANFFQRRWPGSTNYYIKVRAGDNKYMHLKVFNGPWKFRNTDRGADRVLTGYQVDKNKDDELTGFGGGGSGGGGSGGGGSGGGGSGGGGSGGGGSMIPRGLSEAKPATPEIQEIVDKVKPQLEEKTNETYGKLEAVQYKTQVLANFFQRRWPGSTNYYIKVRAGDNKYMHLKVFNGPWKFRNTDRGADRVLTGYQVDKNKDDELTGFHHHHHH
notes: also called ILF homodimer with flexible linker; ILF dimer HSA-41 DI
In the test with human serum albumin [4], B20 gave a Kd of 0.201 nM, a koff of 0.000959 s⁻¹ and a kon of 4.77e+06 M⁻¹ s⁻¹.

B21: AVA04-236 XT8 (designed binder)
chain: MIPRGLSEAKPATPEIQEIVDKVKPQLEEKTNETYGKLEAVQYKTQVLAKEHGPDSWWSTNYYIKVRAGDNKYMHLKVFNGPQEKNQWVEEADRVLTGYQVDKNKDDELTGFAEAAAKEAAAKEAAAKEAAAKEAAAKEAAAKMIPRGLSEAKPATPEIQEIVDKVKPQLEEKTNETYGKLEAVQYKTQVLANFFQRRWPGSTNYYIKVRAGDNKYMHLKVFNGPWKFRNTDRGADRVLTGYQVDKNKDDELTGFHHHHHH
Take B21: the off-rate (koff) in test [1] stood at 0.00695 s⁻¹; in the test with human serum albumin [5] it was 0.00252 s⁻¹. Further, the kon in test [1] is 1.52e+06 M⁻¹ s⁻¹; in the test with human serum albumin [5], 267000 M⁻¹ s⁻¹. Also, the Kd turned out to be 9.5 nM with human serum albumin [5] and 4.57 nM in test [2].

The values are drawn from patent publication US20230272011A1 (AVACTA LIFE SCIENCES, published 2023).
